This assay addresses T1, human receptor tyrosine kinase AXL transcript variant 1 (human, UniProt P30530 26-894).
T1 construct: Overexpressed on RatI-AXL cl.2 and NIH3T3-AXL cl.7 fibroblasts (pLXSN-hAXL); endogenous on human cancer cell lines and HUVEC in the functional assays; also called hAXL; human AXL
T1 sequence: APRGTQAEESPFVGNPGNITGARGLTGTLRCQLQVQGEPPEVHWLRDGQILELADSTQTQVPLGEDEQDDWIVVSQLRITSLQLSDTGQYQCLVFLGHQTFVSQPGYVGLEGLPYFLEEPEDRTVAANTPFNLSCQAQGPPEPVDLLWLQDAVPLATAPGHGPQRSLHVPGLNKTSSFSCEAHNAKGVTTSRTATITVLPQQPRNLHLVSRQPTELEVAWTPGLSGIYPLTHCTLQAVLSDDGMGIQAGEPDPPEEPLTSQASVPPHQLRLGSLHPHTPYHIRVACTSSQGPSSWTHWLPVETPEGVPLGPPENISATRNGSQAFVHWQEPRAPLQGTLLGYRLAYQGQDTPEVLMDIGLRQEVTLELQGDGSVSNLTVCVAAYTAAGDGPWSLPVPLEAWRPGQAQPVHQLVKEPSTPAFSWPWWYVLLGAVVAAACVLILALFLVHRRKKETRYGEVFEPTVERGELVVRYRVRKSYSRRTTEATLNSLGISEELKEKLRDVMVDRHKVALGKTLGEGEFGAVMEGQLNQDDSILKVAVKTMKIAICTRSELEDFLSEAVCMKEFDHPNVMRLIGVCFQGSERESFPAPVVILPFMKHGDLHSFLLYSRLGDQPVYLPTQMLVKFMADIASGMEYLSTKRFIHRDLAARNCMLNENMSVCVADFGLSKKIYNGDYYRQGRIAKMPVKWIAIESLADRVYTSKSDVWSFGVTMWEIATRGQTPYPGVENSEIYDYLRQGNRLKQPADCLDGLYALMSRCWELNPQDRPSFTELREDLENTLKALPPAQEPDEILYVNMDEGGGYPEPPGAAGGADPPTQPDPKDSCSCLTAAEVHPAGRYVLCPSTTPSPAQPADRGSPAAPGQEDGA
Put plainly: FACS Scatchard (apparent KD) on human AXL overexpressing NIH3T3 cells. How it is done:
Human AXL overexpression NIH3T3 cells were harvested by incubation with 10 mM EDTA in PBS and resuspended at 6 million cells per ml in FACS buffer (PBS pH 7.4, 3% FCS, 0.1% NaN₃). […] Antibody binding was allowed to proceed for 2 hours on ice. Then, cells were washed twice with 250 μl FACS buffer per well, and resuspended in 200 μl of secondary antibody (anti-rat-PE; Jackson) diluted 1:50 in FACS buffer. After 45 minutes of incubation, cells were again washed twice in FACS buffer and resuspended in […] PBS for FACS analysis. Analysis was carried out on a Beckman-Coulter FACS FC500. To determine the apparent affinity constant KDapp, mean fluorescence values were plotted against the ratio of mean fluorescence and the corresponding antibody concentration ([M]).

B1: ch11B7-IgG2 (antibody, V domains shown)
VH: EVQLQESGPGLVKPSQSLSLTCSVTGYSITSNYWGWIRKFPGDKMEWMGYITYSGSTSYNPSLKSRISITRDTSKNQFFLQLNSVTSEDTATYYCAITTFYYWGQGVMVTVSS
VL: DIQMTQAPSSLPASLGDRVTITCRASQDIGNYLRWFQQKPGKSPRLMISGATNLAAGVPSRFSGSRSGSDYSLTISSLESEDMADYYCLQSKESPWTFGGGTKLELKR
notes: chimeric rat/human IgG2 kappa, expressed in HEK 293 cells; also called chn11B7 IgG2
Take B1: the Kd was 0.6 nM.

B2: ch11D5-IgG2 (antibody, V domains shown)
VH: EVQLQESGPGLVKPSQSLSLTCSVTGYSITSNYWGWIRKFPGNKMEWIGHITNSGNTTYNPSLKSRISISRDTSRNQFFLQLNSVTTEDTATYYCAKGAFDYWGQGVMVTVSS
VL: DIQMTQSPSSMSTSLGDRVTITCRASQDIGNYLSWFQQKVGKSPRRMIYGAIKLAVGVPSRFSGSRSGSDYSLTISSLESEDMAIYYCLQYIQFPLTFGSGTKLELKR
notes: chimeric rat/human IgG2 kappa, expressed in HEK 293 cells; also called chn11D5 IgG2
Turning to B2, the Kd is 0.9 nM.

The record behind these values is patent US20100330095A1 (U3 PHARMA, published 2010).
